# Results taken from the supplement of paper PMC9170038.
# Test system: MS2 coat protein
# Experiment: apparent KD of MS2 coat protein; higher = weaker reporter binding
# Conditions: Eterna round: R107; input ligand: arginine 13.2 mM
# Description: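 RNA-MaP round R107: designed RNA switches with theophylline, tryptophan, arginine or FMN aptamers are transcribed on-chip within common flanks. They are titrated with SNAP-549-labelled MS2 coat protein in RNA-MaP buffer (100 mM Tris pH 7.5, 80 mM KCl, 4 mM MgCl2), without ligand or with the indicated ligand. Median apparent KD per design.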
row,Sequence,apparent KD of MS2 coat protein [nM]
1,AGGACAUGAGGAUCACCCAUGUACUCUGAAGGAGCGUCGAGAACGACAGGUAGGUCGCAGGCUAAGGAAGGUGAUGCUCAAGAAG [Exclusion Arginine A GF7],20.1
2,GGUGGCUGGACUGAUACCAGCCACCACCGAUAGACCACAUGAGGAUCACCCAUGUUGGGUGGCCCUUGGCAGCAGUCCAGCUGCC [#1 Same State - Theophylline B Attempt #10 (HarryS)],152
3,GGUUACUCUACGGCCGCCACUGAUUAUUUAUAGUCCUGUACAUAAACAUGAGGAUCACCCAUGUACAGGACCGGGUAGUGUAACC [Tryptophan B 12],28.5
4,UCAGUGCAGGGAAGGAGCGGGUACAUGAGGAUCACCCAUGUGCAAGUGGUGAGCGUCCGUGCCCAGGUAGGUCGCCCAGCCUGGU [Atarteedon],69.2
5,AUUUUUCUAUCAGAUACCAGACAAUUUUAGACAUGAGGAUCACCCAUGUAUAGGGUGUUCGUCCCUUGGCAGCUGUUAAGUUUAA [JR_SSTheophyB_Sub004],62
6,UAUAAACAGCCUGGUUACUCGUCGCGCUUGCGAGGACCGGUACGGCCGCCACUCGACCCAUCACAUGAGGAUCACCCAUGUCCCA [theeternabot_exclusion_MS2_Trp_A_25],29.4
7,UGUAACAUGAGGAUCACCCAUGUGAGUGAUACCAGACUAGUGUUAGUCCCUUGGCAGCACGCUGGACGAAUGUGUAGUCUAUGCG [Same State - Theophylline A (Freestyle 19)],55.8
8,ACAUGAGGAUCACCCAUGUGCCGUCUUGAUACCAGACGCGAAGUAGUCCCUUGGCAGCAAAUACGUGAGGGUCGCGCAUGUGUAA [wzxmullin],21.8
9,GGGCCCGGGCGCGAGCCCGGGCCCAUUGAUACCAGUGAUAGAGAGCGCCCUUGGCAGCGAAUCCUAACAUGAGGAUCACCCAUGU [5.K],37.5
10,GGGUACAUCGCGGCCGCCACUUAUGUAAAUACAUGAGGAUCACCCAUGUCGAUGGAGACAUCGGAGAGGACCGGGUGAUGUACCG,28.2
11,CGUCGAAACUGAAGGAGCGAGAUGACAACAUUGGGUCUAACAUGAGGAUCACCCAUGUAAUCUCAGGUAGGUCGCGGUGUCAACA [Exclusion Arginine B GF18],53.7
12,UGUACCUGUAUCUGGUCCAUAGUAUAACCUCGAGGACCGGUACGGCCGCCACUCGUCGGACCACAUGAGGAUCACCCAUGUACCG [theeternabot_exclusion_MS2_Trp_A_23],12.9
13,CACAUGAGGAUCACCCAUGUCUGAACUGAAGGAGCGCUAAACAAGGCAGGUAGGUCGCGGAAUCUUGUGUGCAUAUGCACACGGG [9.S],18.4
14,UUUGGCGGCGAUCUGGGUUUCCCAGAUCGGCGAGGACCGGUACGGCCGCCACUCGUGUUUCUUUGACAUGAGGAUCACCCAUGUA [whbob_SS_trypto A_f4],51.5
15,AUAAGGUAUCUGCUUCAUGGGUGAGCAGAUACCAGCUAGGAAACUAGCCCUUGGCAGCUGCAACAUGAGGAUCACCCAUGUAAUA [(T)'-(M)'-(T1)-(T2)-(M1)-(M2)_Design2],60.7
16,AUAAAUGGGUUAAUUAGUUUUAGGUCCAGUCGAGGACCGGUACGGCCGCCACUCGUCCCAAGUUACAUGAGGAUCACCCAUGUUA [JR_ExcTryptoA_Sub014],33.8
17,CAUUAAUUACGAAGGAGCGUCGAAAAUGGGUAAACAUGAGGAUCACCCAUGUAAAGGGAACGACAGGUAGGUCGCGUAAUUAAUG [AstromonsSSArgB#2],132
18,GUAUUACGGACGGCCGCCACUGUGGGACAUGAGGAUCACCCAUGUGGCGCUACUUACAAGUGCGACAGGACCGGGUCAUGGUUUG [theeternabot_sameState_MS2_Trp_B_1],152
19,ACUUGUGAGUCGGCCGCCACUCACCGGUAGUGUCACUCGUUCACAAACAUGAGGAUCACCCAUGUGAGGACCGGGACAGUCGGGU [theeternabot_exclusion_MS2_Trp_B_28],13.5
20,AACAUACAAUUUUAGGUGGAUAUAAGGCGGCGAGGACCGGUACGGCCGCCACUCGCGUACAUGAGGAUCACCCAUGUCUGAAACU [Same State - Tryptophan A (Freestyle 5)],14.6
21,AUCUUGUACCGUAAUACUUUACGUUGGGAUACCAGCAUGGACCCAUGCCCUUGGCAGCUUUACAUGAGGAUCACCCAUGUUGUAG [SSTheo A #28],26.3
22,UGUCAGCGAAAGUUGACAUGUCUUGCUGGUCGAGGACCGGUACGGCCGCCACUCGAUCUCUCGCACAUGAGGAUCACCCAUGUUG [SS Tryp A #23],13.9
23,AAUAUUUGCCACAUGAGGAUCACCCAUGUGCGAGGACCGGUACGGCCGCCACUCGGUCGGUGGUUAAUGAAGAUAAACAAUAAUG [XTryp A #11],7.7
24,GGCUAGUGCAUCGAUACCAGCUACAUGAGGAUCACCCAUGUAGGAAGGGUGGCACUCGAUAGCCCUUGGCAGCGAACACCUCCGG [Cebebion],53
25,CCUCAUGAACAUGAGGAUCACCCAUGUACACGAGGACCGGUACGGCCGCCACUCGAAUAAGCUAAAUAUAAAUAAUAAUAAUAGC [5' end split MS2],18.4
26,AAUAAUAAGGCGGCCGCCACUACACAUGAGGAUCACCCAUGUCUCGCGGGCUUGCGUUGGGAAUGUAGGACCGGGCCAAUAAUAA [Exclusion - Tryptophan B (Freestyle 10)],14.3
27,AGGACCAGGAUCCUCAUGUAACUGGUCCAACGAGGACCGGUACGGCCGCCACUCGAAUAAACAUGAGGAUCACCCAUGUAAUAAU [T''-M-T'-T-MS2],36.9
28,GGGCCCGGGCGCGAGCCCGGGCCCAUUGAUACCAGUGAUAUAUGACGCCCUUGGCAGCGAAUCCUAACAUGAGGAUCACCCAUGU [5.H],22.8
29,GGACUAACCAGAAGGAGCGACACGCAGAAACUGCAAAUUCCUCCGCACGAGGAUCACCCGUGUCAGGUAGGUCGCUGGUUAGUCG [ArgBX 28],22.9

# Same assay, conditions: Eterna round: R107; input ligand: none
row,Sequence,apparent KD of MS2 coat protein [nM]
1,AGGACAUGAGGAUCACCCAUGUACUCUGAAGGAGCGUCGAGAACGACAGGUAGGUCGCAGGCUAAGGAAGGUGAUGCUCAAGAAG [Exclusion Arginine A GF7],20.2
2,GGUGGCUGGACUGAUACCAGCCACCACCGAUAGACCACAUGAGGAUCACCCAUGUUGGGUGGCCCUUGGCAGCAGUCCAGCUGCC [#1 Same State - Theophylline B Attempt #10 (HarryS)],607
3,UCAGUGCAGGGAAGGAGCGGGUACAUGAGGAUCACCCAUGUGCAAGUGGUGAGCGUCCGUGCCCAGGUAGGUCGCCCAGCCUGGU [Atarteedon],121
4,UGUAACAUGAGGAUCACCCAUGUGAGUGAUACCAGACUAGUGUUAGUCCCUUGGCAGCACGCUGGACGAAUGUGUAGUCUAUGCG [Same State - Theophylline A (Freestyle 19)],78
5,GGGCCCGGGCGCGAGCCCGGGCCCAUUGAUACCAGUGAUAGAGAGCGCCCUUGGCAGCGAAUCCUAACAUGAGGAUCACCCAUGU [5.K],46.3
6,CGUCGAAACUGAAGGAGCGAGAUGACAACAUUGGGUCUAACAUGAGGAUCACCCAUGUAAUCUCAGGUAGGUCGCGGUGUCAACA [Exclusion Arginine B GF18],64.6
7,CACAUGAGGAUCACCCAUGUCUGAACUGAAGGAGCGCUAAACAAGGCAGGUAGGUCGCGGAAUCUUGUGUGCAUAUGCACACGGG [9.S],18.2
8,UUUGGCGGCGAUCUGGGUUUCCCAGAUCGGCGAGGACCGGUACGGCCGCCACUCGUGUUUCUUUGACAUGAGGAUCACCCAUGUA [whbob_SS_trypto A_f4],62.7
9,AUAAGGUAUCUGCUUCAUGGGUGAGCAGAUACCAGCUAGGAAACUAGCCCUUGGCAGCUGCAACAUGAGGAUCACCCAUGUAAUA [(T)'-(M)'-(T1)-(T2)-(M1)-(M2)_Design2],1060
10,CAUUAAUUACGAAGGAGCGUCGAAAAUGGGUAAACAUGAGGAUCACCCAUGUAAAGGGAACGACAGGUAGGUCGCGUAAUUAAUG [AstromonsSSArgB#2],170
11,AACAUACAAUUUUAGGUGGAUAUAAGGCGGCGAGGACCGGUACGGCCGCCACUCGCGUACAUGAGGAUCACCCAUGUCUGAAACU [Same State - Tryptophan A (Freestyle 5)],19.8
12,AAUAUUUGCCACAUGAGGAUCACCCAUGUGCGAGGACCGGUACGGCCGCCACUCGGUCGGUGGUUAAUGAAGAUAAACAAUAAUG [XTryp A #11],12
13,GGCUAGUGCAUCGAUACCAGCUACAUGAGGAUCACCCAUGUAGGAAGGGUGGCACUCGAUAGCCCUUGGCAGCGAACACCUCCGG [Cebebion],18.9
14,AGGACCAGGAUCCUCAUGUAACUGGUCCAACGAGGACCGGUACGGCCGCCACUCGAAUAAACAUGAGGAUCACCCAUGUAAUAAU [T''-M-T'-T-MS2],268
15,GGGCCCGGGCGCGAGCCCGGGCCCAUUGAUACCAGUGAUAUAUGACGCCCUUGGCAGCGAAUCCUAACAUGAGGAUCACCCAUGU [5.H],54.7
16,GGACUAACCAGAAGGAGCGACACGCAGAAACUGCAAAUUCCUCCGCACGAGGAUCACCCGUGUCAGGUAGGUCGCUGGUUAGUCG [ArgBX 28],19.4

# Same assay, conditions: Eterna round: R107; input ligand: theophylline 20 uM
row,Sequence,apparent KD of MS2 coat protein [nM]
1,AGGACAUGAGGAUCACCCAUGUACUCUGAAGGAGCGUCGAGAACGACAGGUAGGUCGCAGGCUAAGGAAGGUGAUGCUCAAGAAG [Exclusion Arginine A GF7],37.3
2,GGUGGCUGGACUGAUACCAGCCACCACCGAUAGACCACAUGAGGAUCACCCAUGUUGGGUGGCCCUUGGCAGCAGUCCAGCUGCC [#1 Same State - Theophylline B Attempt #10 (HarryS)],374
3,GGUUACUCUACGGCCGCCACUGAUUAUUUAUAGUCCUGUACAUAAACAUGAGGAUCACCCAUGUACAGGACCGGGUAGUGUAACC [Tryptophan B 12],53.9
4,UCAGUGCAGGGAAGGAGCGGGUACAUGAGGAUCACCCAUGUGCAAGUGGUGAGCGUCCGUGCCCAGGUAGGUCGCCCAGCCUGGU [Atarteedon],235
5,AUUUUUCUAUCAGAUACCAGACAAUUUUAGACAUGAGGAUCACCCAUGUAUAGGGUGUUCGUCCCUUGGCAGCUGUUAAGUUUAA [JR_SSTheophyB_Sub004],152
6,UAUAAACAGCCUGGUUACUCGUCGCGCUUGCGAGGACCGGUACGGCCGCCACUCGACCCAUCACAUGAGGAUCACCCAUGUCCCA [theeternabot_exclusion_MS2_Trp_A_25],45
7,UGUAACAUGAGGAUCACCCAUGUGAGUGAUACCAGACUAGUGUUAGUCCCUUGGCAGCACGCUGGACGAAUGUGUAGUCUAUGCG [Same State - Theophylline A (Freestyle 19)],108
8,ACAUGAGGAUCACCCAUGUGCCGUCUUGAUACCAGACGCGAAGUAGUCCCUUGGCAGCAAAUACGUGAGGGUCGCGCAUGUGUAA [wzxmullin],27.3
9,GGGCCCGGGCGCGAGCCCGGGCCCAUUGAUACCAGUGAUAGAGAGCGCCCUUGGCAGCGAAUCCUAACAUGAGGAUCACCCAUGU [5.K],95.2
10,GGGUACAUCGCGGCCGCCACUUAUGUAAAUACAUGAGGAUCACCCAUGUCGAUGGAGACAUCGGAGAGGACCGGGUGAUGUACCG,41.6
11,CGUCGAAACUGAAGGAGCGAGAUGACAACAUUGGGUCUAACAUGAGGAUCACCCAUGUAAUCUCAGGUAGGUCGCGGUGUCAACA [Exclusion Arginine B GF18],86.3
12,UGUACCUGUAUCUGGUCCAUAGUAUAACCUCGAGGACCGGUACGGCCGCCACUCGUCGGACCACAUGAGGAUCACCCAUGUACCG [theeternabot_exclusion_MS2_Trp_A_23],17.8
13,CACAUGAGGAUCACCCAUGUCUGAACUGAAGGAGCGCUAAACAAGGCAGGUAGGUCGCGGAAUCUUGUGUGCAUAUGCACACGGG [9.S],27.4
14,UUUGGCGGCGAUCUGGGUUUCCCAGAUCGGCGAGGACCGGUACGGCCGCCACUCGUGUUUCUUUGACAUGAGGAUCACCCAUGUA [whbob_SS_trypto A_f4],82.7
